Results reported in the DeepSol protein solubility set.

assay: soluble on expression in E. coli; label from the status in PepcDB or PDB records

**Q.** For “MCIVALAWQVFDQIPLCLLSNRDEFYARPTTQLHLWENTPIIAGRDLQSGGTWMGITASGRWAVVTNFRDGHDKKIYDTSRGTLVEDFLLSDLAPIRFAKQLEQRQQHYAGFNLFMGDQSQAVYMSNRGEAPQVLAKGVYVVSNGLMSEHWEKTAHLRKRFTQEFVPMLQAEIAEHDLEYTAWDILEDERKVIPELLPSTGIHPDMEELLSSTFIQSPVYGTRCSNFLRLMKRRWIWAEKTQWGDHAGEMMRMDIQIQLEHHHHHH”, which “soluble on expression in E. coli” value is on record?
**A.** not soluble

**Q.** With “GKQDRQMIVVDPRKTDTAKLADVHLQVEPHKDYELVSALRAAAKGFNIEAEQVAGVPTETIYEAVDICKNAQFGSLFFAMGVTMSRGKHRIIDNAIQFVIDMNAYTKFVLTPMRGHYNVNGFNQVSTWVTGYPYGVDFSRGYPRYNPGETASNDVLQRGDTDMMINVASDAGAHFPQKAVQHMAKIPLVCIDPHETPSSVISNIVLPPAITGLEVSGTAYRMDGVPIELRKVIKAPEGMLSDAEIMK” as the sequence, how does the “soluble on expression in E. coli” value read?
**A.** not soluble

**Q.** For “AHHHHHHGSSVEVPLNPITRSEIHQLESILLFATLFRPEVIELIKDPAERLTWVDSLAVAAGAIAREKAGMTVSEIARELGRTEQTIRKHLKGESKAGQLVRETYELIKQGKLDELIKTIEMIEKGGLREVVAKEEYEKLLQEYEKLKQEYEAIKEKVEAAELESLEKAKEEIENLKKKLQKLEEEKKELEKELKEQKVKLIEYEAKAKRAEELENKVKELEQLAKESEELKKKLEEVQAEAEKAKELENRIKELEEEITKLKDGIKKAKEILESLL”, which “soluble on expression in E. coli” value is on record?
**A.** not soluble

**Q.** Which “soluble on expression in E. coli” value does the source give for “MAHHHHHHMDAERGCRQCGQQGHSASQCRIKKYLCRDCGGMHDTRDCIFSHVGEDWYEFYDPKTRHVYYANSDESQIQWNPPTHELDTIYWYCSRCQVMISAKFRECLLCHSIRPESKQQETLTTDSNSDSSSSSSTSSSSSSTDTSCISRSSSSSGSASSSDSSSNDDDKRSAAGRLRDRAP” here?
**A.** soluble

**Q.** For “MSLAVVKGARVQVPFGQQIKVGIVVDLPSTTDIPQSKLKPIHAVLDHQAIFDPEIWQLLHWAASYYHAAIGEVLASALPVKLRNGDAAEYVENDYFRVTELGQQRLVSPENKRSKKQYDLLSRLAEIAGFFEKPAGVSPSVWKALLEKGYLAKVVPTCQRKSWQQSLANRPLVNSQSRLVLNQQQTLVVSRLNACQNFETFLLNGITGSGKTEVYLQVIEQILKQDKQVLVLVPEIGLTPQMVNRFKTRFNVEIDVLHSNINETMRLKVWLKAKNGESAIVIGTRSALFTQFQRLGLIIIDEEHDHSFKQQEGWRYHARDVAIFRAKCLNIPIILGSATPSLESVYNVKNGKFTQLLLSTRAGNAEIAQQQLIDLKTQRITAGLSDRLLMLMQTHLQKGNQVMLFLNRRGFAPVLLCHECGWICECDACEKPYTYHQKQRVLRCHHCASQRVIPRQCGYCGSTNLITTGIGTEQLEQLLSEYFPTYQISRIDRDSTGRKGALEHHLNAIQTGKSQILIGTQMLAKGHHFPNVTLVALVNVDSALFSTDFRAEERLAQLYLQVAGRAGRAEKTGEVVLQTHYPDHPLLKCLLKDGYNAFAEEALKMRQVMALPPFTAQVLFRATGKQSDKVEHLLQNLTAYFQHKSVELGIEGIQISPPFSAIVAKKAGYYRWLLLIQHQSRSAIQQLLNVFDQEKSALNLPANIRLSLDVDPYDMSEGHHHHHH”, which “soluble on expression in E. coli” value is on record?
**A.** soluble

**Q.** For “MGSDKIHHHHHHMAYPFNHKEFVAMMEQYNLKSNSITIPEHTILNDLVTENRDCVYLLKSGILAGYIDFDNDKIYSIFTSNFFMGYYTIFDNASLVLTYQTLTECELIIYKKKDIEYSLSLFPENFSFQYTIMRTIAKHGYYKSLLQYRDKKDQLAFVFEMLVKILDIPVEDGVAVLPKSISTTVIKNYCTLSKAFFYSQLKELKEAGIISKVKLQWRINMEALSEKNNSIN”, which “soluble on expression in E. coli” value is on record?
**A.** not soluble

**Q.** With “MHLTREVNIMSILSAVSRVINNFSTEIKNRVVEVGSNLKKSTEEFIGEVVIKAAVNRLKQGMLNALSSSNDTTKDNGNDLSTNSPDIEDVSAPTLSSKKKTEANTTLVGSTGIMQKLLGNIGVNSEQSIEVLSKHFNGAVERFTQDVSKAANEAVCEKIKSIQPEDVVKGINSLIGNTLKVDSESGDTTLSFKLESAVQILGVILAAMGMLMFASQTKSTEQKTLEIEHLPTEEIQPPSLAIH” as the sequence, how does the “soluble on expression in E. coli” value read?
**A.** not soluble

**Q.** With “MDTPNKDDSIIRFSVSLQQNLLDELDNRIIKNGYSSRSELVRDMIREKLVEDNWAEDNPNDESKIAVLVVIYDGGQRELNQRMIDIQHASGTHVLCTTHIHMDEHNCLETIILQGNSFEIQRLQLEIGGLRGVKFAKLTKASSFEYNE” as the sequence, how does the “soluble on expression in E. coli” value read?
**A.** soluble

**Q.** Which “soluble on expression in E. coli” value does the source give for “MSLSDAISFRPMTEADLDAVLKIEYAAFSHPWTRGIFSEGLKNYHCWLMFEGSQQVGHGVIQIILDEAHLLNITVKPESQGRGLGLRLLEHLMREAAGHQARECFLEVRASNQAAYRLYERYGFNEIGRRRDYYPAVGGREDALVMACTLFDEGHHHHHH” here?
**A.** soluble

**Q.** With “MKLMAQLGKLLKEQKYDRQLRLWGDHGQEALESAHVCLINATATGTEILKNLVLPGIGSFTIIDGNQVSGEDAGNNFFLQRSSIGKNRAEAAMEFLQELNSDVSGSFVEESPENLLDNDPSFFCRFTVVVATQLPESTSLRLADVLWNSQIPLLICRTYGLVGYMRIIIKEHPVIESHPDNALEDLRLDKPFPELREHFQSYDLDHMEKKDHSHTPWIVIIAKYLAQWYSETNGRIPKTYKEKEDFRDLIRQGILKNENGAPEDEENFEEAIKNVNTALNTTQIPSSIEDIFNDDRCINITKQTPSFWILARALKEFVAKEGQGNLPVRGTIPDMIADSGKYIKLQNVYREKAKKDAAAVGNHVAKLLQSIGQAPESISEKELKLLCSNSAFLRVVRCRSLAEEYGLDTINKDEIISSMDNPDNEIVLYLMLRAVDRFHKQQGRYPGVSNYQVEEDIGKLKSCLTGFLQEYGLSVMVKDDYVHEFCRYGAAEPHTIAAFLGGAAAQEVIKIITKQFVIFNNTYIYSGMSQTSATFQL” as the sequence, how does the “soluble on expression in E. coli” value read?
**A.** soluble

**Q.** Which “soluble on expression in E. coli” value does the source give for “MSLKITHTEIYRFSIPMEPFVIATGTMHFAQNVLIRIHTDNGLYGLGECSAFPMIVGENQDTCLVMAREFAKLLPGKDPLDIPGRMNDLLGYADRNTTIKSAFDMALFDLAAKHAGQPLYQFLGGNRKKVETDMTIGISSPEKMAQLAQHYQAQGCSILKVKLGKDIHEDIERVAQIRAAVGGMMTIRLDANQGWSFDDALYGLGALAKYDIEFCEQPMRSWYDDRLPELQLNSPIAIMADESCYNHHDARRLINSRSCEYLNIKFSKSGGILEAQKIHEVALQHGMKCMMGGMLESRLAATAKLHFALSAPNIVFFDLDTCMLGHLIDPVVGGMSYEGFILDVPEAPGIGADADPAFLDECESWRIEGHHHHHH” here?
**A.** soluble

**Q.** For “MSSAIERKSLDPSEEPVDEVLQIPPSLLTCGGCQQNIGDRYFLKAIDQYWHEDCLSCDLCGCRLGEVGRRLYYKLGRKLCRRDYLRLFGQDGLCASCDKRIRAYEMTMRVKDKVYHLECFKCAACQKHFCVGDRYLLINSDIVCEQDIYEWTKINGMI”, which “soluble on expression in E. coli” value is on record?
**A.** not soluble

**Q.** For “MSLQPNDITFFQRFQNDILAGRKTITIRDASESHFKAGDVLRVGRFEDDGYFCTIEVTGTSTVTLDTLNEKHAQQENMSLDELKRVIAEIYPNQTQFYVIDFKCLEGHHHHHH”, which “soluble on expression in E. coli” value is on record?
**A.** soluble

**Q.** With “MLVKGNEILLKAHKEGYGVGAFNFVNFEMLNAIFEAGNEENSPLFIQASEGAIKYMGIDMAVGMVKIMCERYPHIPVALHLDHGTTFESCEKAVKAGFTSVMIDASHHAFEENLELTSKVVKMAHNAGVSVEAELGRLMGIEDNISVDEKDAVLVNPKEAEQFVKESQVDYLAPAIGTSHGAFKFKGEPKLDFERLQEVKRLTNIPLVLHGASAIPDNVRKSYLDAGGDLKGSKGVPFEFLQESVKGGINKVNTDTDLRIAFIAEVRKVANEDKSQFDLRKFFSPAQLALKNVVKERMKLLGSANKI” as the sequence, how does the “soluble on expression in E. coli” value read?
**A.** soluble

**Q.** For “MGSDKIHHHHHHMDLITKQDGTTLHYSTMGQGYPVVLVHTAFDNYAVFNDLAKVLAKSFQVVLIDLRGHGYSDKPRNIEFYDFADDIKFLLDAIYIDEAAFIGHEMGALIAADMSVRNPGYISSITLVNPTSIEGELPEERLFRKYAHKIRNWEDDKQEKFLDKRRYYKARKMNKFLKHVVDTNSISTKEEIQAVKDVFKSEGIADVFKHVQVPTLIVAGEHGERTTTLEAKEVADLIQHCEFNVYQHSSAYPFVEEQAQFTQETTNFIQQHAPK”, which “soluble on expression in E. coli” value is on record?
**A.** not soluble

**Q.** With “MGLDIRFTGVADSSGALHDPDGLDIRGVLEHKKRAGLGSHPSGYEGMTGDELLDEAEYDCLVEATPTNIEDGEPGRSLVLKAMGDGKHVVTSNKGHLALFYSELMEAASEAGVEFMFEASVGGAMPIINLARETLASCTIESVIGILNGTTNFILSRMASEGSSYRQALIEAQELGIAETNPAQDVEGTDAACKAVIIANSILGRPCTLRDVRVEGITGITQGAIELAAQEGYLIKLIAEISGDRLEVGPRLVRMGSPYAVDGTLNMATLRTDLAGEVTAVGRGAGSLETASAMLTDTITIWRKSGLEHHHHHH” as the sequence, how does the “soluble on expression in E. coli” value read?
**A.** not soluble

**Q.** For “MGSDKIHHHHHHMPFLEIRLTKESGRIYEEHSHPMLSIGVMLEGETQFFLQGEEFRLQTGMLAVIPPRMAHACNPLPSQTRSYFILHLSLDFCLEIQGRLFNEGGQNLLPLRAPRIFDPMMYQGLTSLIQSLLKGYDSLKGEAFWGWCERFFARYTLEVSSRGDALISEVAEYLEGDVEEASLAFLSKRFQINPYTLERRFKKAYGTTPKRYHTDARLHRLKKLLRQGIPLALCAQYGGFSDQSHFQRFFKRRVALTPREYQLNFVQ”, which “soluble on expression in E. coli” value is on record?
**A.** not soluble

**Q.** With “MNQRLVYVVSDSGGETAELVVKAAASQFHASPIQVKRVPYVEDKTTLAEVVALAKMNRAIIAFTLVVPEMREFLLAEAAREGVVAYDIIGPLIEKMSHLFQLTPRYEPGQVRVLDEDYFKKIEAIEFAVKYDDGRDPRGILRADIVLIGVSRTSKTPLSQYLAHKRLKVANVPIVPEVEPPEQLFRVGPGKCFGLKISPDKLLSIRRERLKSLGLNDQAIYANMDRIKEELAYFDEVVKKIGCDVIDVTNKAVEETASIIMKKLKR” as the sequence, how does the “soluble on expression in E. coli” value read?
**A.** not soluble

**Q.** Which “soluble on expression in E. coli” value does the source give for “MSLQNIRFGECINSPYVKPKRVFYTERGIEKSWDVVEAHDSVSVLLFDPKKRAFVLVKQFRPAVFLKGTSGYTYELCAGIVDKPGKSLEVIAQEEILEECGYSLSIDSLERITSFYTSVGFAGSRQTLFYAEVEDSLRQGEGGGVESENIEVVHLPLLEARAFMLDEERPKTPGLLFAFMWFFERHPKNEGHHHHHH” here?
**A.** soluble

**Q.** For “MPLSQEESTLIERATATINSIPISEDYSVASAALSSDGRIFTGVNVYHFTGGPCAELVVLGTAAAAAAGNLTCIVAIGNENRGILSPCGRCRQVLLDLHPGIKAIVKDSDGQPTAVGIRELLPSGYVWEG”, which “soluble on expression in E. coli” value is on record?
**A.** soluble

**Q.** With “KIGERMLGTDPVTGESVVAKMGRYGAMVQKGRTDKENGIKAQFASLQPGQSIESITLEEALELFLLPKKLGQYEDADVMVAVGRFGPYIKHAGKFVGLPKDTEPLSVSLDDAIKYIADKREKEEKSLIKGFAEDPEMEIRTGRFGVYIKYKGKNYKVPKTVEDPEKLTLEECLKYVEEGETKPAKGKKKAPAKKTSAKKTAKK” as the sequence, how does the “soluble on expression in E. coli” value read?
**A.** not soluble

**Q.** With “MGSDKIHHHHHHMNKKGNTEEIIERLFSILSSEKDSIEFLKAVSEFSKFYEIDKKEQERRSSEAKSFVKMALQDFESVKILYQSKIYSLAVYHLQQAVEKYVKAYVLAFFGLSKKEMKGYVGHDSPKAFIRLLDRYKRSLELFLKSIQKIGGLDTQFLKISDEDIRKLVRIVNMSRKQIAEMDSNQIKGIINATIKIKIALENKEIKNQILGLLSKLKNEASEIKSSDPSEKFILEKLIDSVDRVLNNLETLLKLSSTFLVLYMLSIITYPHATFARYPNKTLPPEKYDENLGIVQYFNEIVKLLDEVANLLVYEI” as the sequence, how does the “soluble on expression in E. coli” value read?
**A.** not soluble

**Q.** With “MEKVKKIVLIGASGFVGSALLNEALNRGFEVTAVVRHPEKIKIENEHLKVKKADVSSLDEVCEVCKGADAVISAFNPGWNNPDIYDETIKVYLTIIDGVKKAGVNRFLMVGGAGSLFIAPGLRLMDSGEVPENILPGVKALGEFYLNFLMKEKEIDWVFFSPAADMRPGVRTGRYRLGKDDMIVDIVGNSHISVEDYAAAMIDELEHPKHHQERFTIGYLEHHHHHH” as the sequence, how does the “soluble on expression in E. coli” value read?
**A.** soluble
